These results are taken from IntAct's records for PubMed 25517094.

To fix the notation:
B1: "D(3) dopamine receptor" (Homo sapiens), P35462-1 (parent)
chain: MASLSQLSGHLNYTCGAENSTGASQARPHAYYALSYCALILAIVFGNGLVCMAVLKERALQTTTNYLVVSLAVADLLVATLVMPWVVYLEVTGGVWNFSRICCDVFVTLDVMMCTASILNLCAISIDRYTAVVMPVHYQHGTGQSSCRRVALMITAVWVLAFAVSCPLLFGFNTTGDPTVCSISNPDFVIYSSVVSFYLPFGVTVLVYARIYVVLKQRRRKRILTRQNSQCNSVRPGFPQQTLSPDPAHLELKRYYSICQDTALGGPGFQERGGELKREEKTRNSLSPTIAPKLSLEVRKLSNGRLSTSLKLGPLQPRGVPLREKKATQMVAIVLGAFIVCWLPFFLTHVLNTHCQTCHVSPELYSATTWLGYVNSALNPVIYTTFNIEFRKAFLKILSC
B2: Muscarinic acetylcholine receptor M4 (Homo sapiens), P08173 (parent)
chain: MANFTPVNGSSGNQSVRLVTSSSHNRYETVEMVFIATVTGSLSLVTVVGNILVMLSIKVNRQLQTVNNYFLFSLACADLIIGAFSMNLYTVYIIKGYWPLGAVVCDLWLALDYVVSNASVMNLLIISFDRYFCVTKPLTYPARRTTKMAGLMIAAAWVLSFVLWAPAILFWQFVVGKRTVPDNQCFIQFLSNPAVTFGTAIAAFYLPVVIMTVLYIHISLASRSRVHKHRPEGPKEKKAKTLAFLKSPLMKQSVKKPPPGEAAREELRNGKLEEAPPPALPPPPRPVADKDTSNESSSGSATQNTKERPATELSTTEATTPAMPAPPLQPRALNPASRWSKIQIVTKQTGNECVTAIEIVPATPAGMRPAANVARKFASIARNQVRKKRQMAARERKVTRTIFAILLAFILTWTPYNVMVLVNTFCQSCIPDTVWSIGYWLCYVNSTINPACYALCNATFKKTFRHLLLCQYRNIGTAR
B3: "D(4) dopamine receptor" (Mus musculus), P51436 (parent)
chain: MGNSSATEDGGLLAGRGPESLGTGAGLGGAGAAALVGGVLLIGLVLAGNSLVCVSVASERTLQTPTNYFIVSLAAADLLLAVLVLPLFVYSEVQGGVWLLSPRLCDTLMAMDVMLCTASIFNLCAISVDRFVAVTVPLRYNQQGQCQLLLIAATWLLSAAVASPVVCGLNDVPGRDPAVCCLENRDYVVYSSVCSFFLPCPLMLLLYWATFRGLRRWEAARHTKLHSRAPRRPSGPGPPVSDPTQGPFFPDCPPPLPSLRTSPSDSSRPESELSQRPCSPGCLLADAALPQPPEPSSRRRRGAKITGRERKAMRVLPVVVGAFLVCWTPFFVVHITRALCPACFVSPRLVSAVTWLGYVNSALNPIIYTIFNAEFRSVFRKTLRLRC

The first experiment covers variants of B1. To be noted: with SH3GL1, Q99961-1.
Target sequence in this assay (Q99961 whole entry): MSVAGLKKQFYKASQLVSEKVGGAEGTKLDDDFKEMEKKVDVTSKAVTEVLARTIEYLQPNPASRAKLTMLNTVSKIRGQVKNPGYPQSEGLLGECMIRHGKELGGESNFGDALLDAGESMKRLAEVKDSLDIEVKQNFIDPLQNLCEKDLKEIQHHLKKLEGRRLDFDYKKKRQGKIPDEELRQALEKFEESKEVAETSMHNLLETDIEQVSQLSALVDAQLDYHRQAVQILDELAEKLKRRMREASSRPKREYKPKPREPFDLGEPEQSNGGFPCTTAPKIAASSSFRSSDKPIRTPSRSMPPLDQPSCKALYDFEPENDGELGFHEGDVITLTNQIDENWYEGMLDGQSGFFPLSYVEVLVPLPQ
For the variant K293E, the “effect of a mutation on the interaction” value is “decreasing interaction strength”. Still for that read-out and setting: as for R318E, the entry is “decreasing interaction strength”.

Variants of B2 are the subject of another experiment. Particulars: with SH3GL1, Q99961-1.
Target sequence in this assay (Q99961 whole entry): as above
Turning to K255E;K256E, the “effect of a mutation on the interaction” value was “decreasing interaction strength”. Still for that read-out and setting: as for P330E, the entry is “decreasing interaction strength”. Same read-out and setting: as for R230E, the entry is “decreasing interaction strength”.

In the next experiment the parent is B3. Particulars: with SH3GL1, Q99961-1.
Target sequence in this assay (Q99961 whole entry): as above
With P230A;P233A, the “effect of a mutation on the interaction” value was “decreasing interaction strength”. On to R231D;R232E, for which the “effect of a mutation on the interaction” value is recorded as “disrupting interaction strength”.
